According to patent US20200079833A1 (AstraZeneca / MedImmune, published 2020):
Starred links: 1 amine or outer side, 2 acyl side, 3 side chain; linkers in the order of their positions; H or OH if unused. Non-standard residues stand in square brackets, D forms with d. Groups on a side chain read outwards from the residue. Primed or numbered codes have the meaning given here. No end group written: not given here. *: point of attachment. γGlu = O=C(O)[C@H](CCC(=O)[*:2])N[*:1]; Palmitoyl = CCCCCCCCCCCCCCCC(=O)*; αMeF = C[C@](N)(Cc1ccccc1)C(=O)O; αMeK = C[C@](N)(CCCCN)C(=O)O; Lauroyl = CCCCCCCCCCCC(=O)*; αMeS = C[C@](N)(CO)C(=O)O; PEG2′ = not defined here; Aib = CC(C)(N)C(=O)O

T1: glucose-dependent insulinotropic peptide (gastric inhibitory polypeptide) receptor (GIPR), primary cAMP assay … (human, UniProt P48546 22-466)
T1 sequence (looked up): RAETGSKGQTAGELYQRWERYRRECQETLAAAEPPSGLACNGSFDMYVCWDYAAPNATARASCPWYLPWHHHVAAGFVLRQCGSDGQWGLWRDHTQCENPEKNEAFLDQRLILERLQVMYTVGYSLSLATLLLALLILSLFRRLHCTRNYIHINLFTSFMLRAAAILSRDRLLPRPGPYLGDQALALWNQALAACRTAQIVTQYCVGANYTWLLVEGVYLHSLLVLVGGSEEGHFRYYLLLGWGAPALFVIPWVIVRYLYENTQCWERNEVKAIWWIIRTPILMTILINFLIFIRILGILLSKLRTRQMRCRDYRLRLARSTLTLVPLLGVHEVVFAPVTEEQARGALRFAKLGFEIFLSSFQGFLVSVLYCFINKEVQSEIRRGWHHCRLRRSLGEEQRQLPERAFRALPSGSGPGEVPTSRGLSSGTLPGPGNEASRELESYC

T2: glucose-dependent insulinotropic peptide (gastric inhibitory polypeptide) receptor (human, UniProt P48546 22-466)
T2 sequence (looked up): T1 sequence (looked up)

B1: SEQ ID NO 13 (peptide)
peptide: H[Aib]QGS[αMeF]TSDK([γGlu-Palmitoyl])SE[αMeF]LDSERARD[αMeF]VA[αMeF]LEAGG-NH2
modifications: N-terminus assumed
SMILES: CCCCCCCCCCCCCCCC(=O)N[C@@H](CCC(=O)NCCCC[C@H](NC(=O)[C@H](CC(=O)O)NC(=O)[C@H](CO)NC(=O)[C@@H](NC(=O)[C@](C)(Cc1ccccc1)NC(=O)[C@H](CO)NC(=O)CNC(=O)[C@H](CCC(N)=O)NC(=O)C(C)(C)NC(=O)[C@@H](N)Cc1c[nH]cn1)[C@@H](C)O)C(=O)N[C@@H](CO)C(=O)N[C@@H](CCC(=O)O)C(=O)N[C@@](C)(Cc1ccccc1)C(=O)N[C@@H](CC(C)C)C(=O)N[C@@H](CC(=O)O)C(=O)N[C@@H](CO)C(=O)N[C@@H](CCC(=O)O)C(=O)N[C@@H](CCCNC(=N)N)C(=O)N[C@@H](C)C(=O)N[C@@H](CCCNC(=N)N)C(=O)N[C@@H](CC(=O)O)C(=O)N[C@@](C)(Cc1ccccc1)C(=O)N[C@H](C(=O)N[C@@H](C)C(=O)N[C@@](C)(Cc1ccccc1)C(=O)N[C@@H](CC(C)C)C(=O)N[C@@H](CCC(=O)O)C(=O)N[C@@H](C)C(=O)NCC(=O)NCC(N)=O)C(C)C)C(=O)O
B2: SEQ ID NO 16 (peptide)
peptide: H[Aib]EGS[αMeF]T[αMeS]DVSS[αMeF]LEGEAA[αMeK]E[αMeF]IA[αMeF]VV[αMeK]GG-NH2
modifications: N-terminus assumed
SMILES: CC[C@H](C)[C@H](NC(=O)[C@](C)(Cc1ccccc1)NC(=O)[C@H](CCC(=O)O)NC(=O)[C@](C)(CCCCN)NC(=O)[C@H](C)NC(=O)[C@H](C)NC(=O)[C@H](CCC(=O)O)NC(=O)CNC(=O)[C@H](CCC(=O)O)NC(=O)[C@H](CC(C)C)NC(=O)[C@](C)(Cc1ccccc1)NC(=O)[C@H](CO)NC(=O)[C@H](CO)NC(=O)[C@@H](NC(=O)[C@H](CC(=O)O)NC(=O)[C@](C)(CO)NC(=O)[C@@H](NC(=O)[C@](C)(Cc1ccccc1)NC(=O)[C@H](CO)NC(=O)CNC(=O)[C@H](CCC(=O)O)NC(=O)C(C)(C)NC(=O)[C@@H](N)Cc1c[nH]cn1)[C@@H](C)O)C(C)C)C(=O)N[C@@H](C)C(=O)N[C@@](C)(Cc1ccccc1)C(=O)N[C@H](C(=O)N[C@H](C(=O)N[C@@](C)(CCCCN)C(=O)NCC(=O)NCC(N)=O)C(C)C)C(C)C
B3: SEQ ID NO 14 (peptide)
peptide: H[Aib]QGS[αMeF]TSD[αMeF]SK[αMeF]LDSRRAQD[αMeF]VQ[αMeF]LMNT-NH2
modifications: N-terminus assumed
SMILES: CSCC[C@H](NC(=O)[C@H](CC(C)C)NC(=O)[C@](C)(Cc1ccccc1)NC(=O)[C@H](CCC(N)=O)NC(=O)[C@@H](NC(=O)[C@](C)(Cc1ccccc1)NC(=O)[C@H](CC(=O)O)NC(=O)[C@H](CCC(N)=O)NC(=O)[C@H](C)NC(=O)[C@H](CCCNC(=N)N)NC(=O)[C@H](CCCNC(=N)N)NC(=O)[C@H](CO)NC(=O)[C@H](CC(=O)O)NC(=O)[C@H](CC(C)C)NC(=O)[C@](C)(Cc1ccccc1)NC(=O)[C@H](CCCCN)NC(=O)[C@H](CO)NC(=O)[C@](C)(Cc1ccccc1)NC(=O)[C@H](CC(=O)O)NC(=O)[C@H](CO)NC(=O)[C@@H](NC(=O)[C@](C)(Cc1ccccc1)NC(=O)[C@H](CO)NC(=O)CNC(=O)[C@H](CCC(N)=O)NC(=O)C(C)(C)NC(=O)[C@@H](N)Cc1c[nH]cn1)[C@@H](C)O)C(C)C)C(=O)N[C@@H](CC(N)=O)C(=O)N[C@H](C(N)=O)[C@@H](C)O
B4: SEQ ID NO 15 (peptide)
peptide: Y[Aib]EGS[αMeF]ISD[αMeF]SIAMDKIHQQD[αMeF]VN[αMeF]LLAQK-NH2
modifications: N-terminus assumed
SMILES: CC[C@H](C)[C@H](NC(=O)[C@H](CO)NC(=O)[C@](C)(Cc1ccccc1)NC(=O)[C@H](CC(=O)O)NC(=O)[C@H](CO)NC(=O)[C@@H](NC(=O)[C@](C)(Cc1ccccc1)NC(=O)[C@H](CO)NC(=O)CNC(=O)[C@H](CCC(=O)O)NC(=O)C(C)(C)NC(=O)[C@@H](N)Cc1ccc(O)cc1)[C@@H](C)CC)C(=O)N[C@@H](C)C(=O)N[C@@H](CCSC)C(=O)N[C@@H](CC(=O)O)C(=O)N[C@@H](CCCCN)C(=O)N[C@H](C(=O)N[C@@H](Cc1c[nH]cn1)C(=O)N[C@@H](CCC(N)=O)C(=O)N[C@@H](CCC(N)=O)C(=O)N[C@@H](CC(=O)O)C(=O)N[C@@](C)(Cc1ccccc1)C(=O)N[C@H](C(=O)N[C@@H](CC(N)=O)C(=O)N[C@@](C)(Cc1ccccc1)C(=O)N[C@@H](CC(C)C)C(=O)N[C@@H](CC(C)C)C(=O)N[C@@H](C)C(=O)N[C@@H](CCC(N)=O)C(=O)N[C@@H](CCCCN)C(N)=O)C(C)C)[C@@H](C)CC

Molecular target: GLP-1 receptor (GLP-1R), primary cAMP assay cell line (human, UniProt P43220 24-463)
Assay: cell-based or functional assay

| cAMP Primary assay EC50, Mean pM GLP-1R [pM] | cAMP Primary assay EC50, n1 [nM] | cAMP Primary assay EC50, n2 [nM] | Binder |
| --- | --- | --- | --- |
| 223 | 0.192 | 0.254 | H[Aib]EGS[αMeF]TSDVSK([PEG2′-PEG2′-γGlu-Lauroyl])YLEK([PEG2′-PEG2′-γGlu-Lauroyl])EAA[αMeK]EFIK([PEG2′-PEG2′-γGlu-Lauroyl])FVVEGG-NH2 [SEQ ID NO: 443] |
| 176 | 0.11 | 0.241 | H[Aib]EGS[αMeF]TSDK([PEG2′-PEG2′-γGlu-Lauroyl])SSYLEGEK([PEG2′-PEG2′-γGlu-Lauroyl])A[αMeK]EFIK([PEG2′-PEG2′-γGlu-Lauroyl])FVVEGG-NH2 [SEQ ID NO: 441] |
| 82 | 0.0609 | 0.103 | H[Aib]EGS[αMeF]TSDK([PEG2′-PEG2′-γGlu-Lauroyl])SSYLEGEAA[αMeK]K([PEG2′-PEG2′-γGlu-Lauroyl])FIK([PEG2′-PEG2′-γGlu-Lauroyl])FVVEGG-NH2 [SEQ ID NO: 442] |
| 130 | 0.0967 | 0.164 | H[Aib]EGS[αMeF]TSDK([PEG2′-PEG2′-γGlu-Lauroyl])SSYLEGK([PEG2′-PEG2′-γGlu-Lauroyl])AA[αMeK]EFIK([PEG2′-PEG2′-γGlu-Lauroyl])FVVEGG-NH2 [SEQ ID NO: 440] |
| 97 | 0.0599 | 0.134 | H[Aib]EGS[αMeF]TSDK([PEG2′-PEG2′-γGlu-Lauroyl])SSYLEK([PEG2′-PEG2′-γGlu-Lauroyl])EAA[αMeK]EFIK([PEG2′-PEG2′-γGlu-Lauroyl])FVVEGG-NH2 [SEQ ID NO: 439] |

Molecular target: T1, glucose-dependent insulinotropic …
Assay: cell-based or functional assay

| cAMP Primary assay EC50, n1 [nM] | cAMP Primary assay EC50, n2 [nM] | Binder |
| --- | --- | --- |
| 19.4 | 19.4 | H[Aib]EGS[αMeF]TSDVSK([PEG2′-PEG2′-γGlu-Lauroyl])YLEK([PEG2′-PEG2′-γGlu-Lauroyl])EAA[αMeK]EFIK([PEG2′-PEG2′-γGlu-Lauroyl])FVVEGG-NH2 [SEQ ID NO: 443] |
| 19.5 | 19.5 | H[Aib]EGS[αMeF]TSDK([PEG2′-PEG2′-γGlu-Lauroyl])SSYLEGEK([PEG2′-PEG2′-γGlu-Lauroyl])A[αMeK]EFIK([PEG2′-PEG2′-γGlu-Lauroyl])FVVEGG-NH2 [SEQ ID NO: 441] |
| 19.7 | 19.7 | H[Aib]EGS[αMeF]TSDK([PEG2′-PEG2′-γGlu-Lauroyl])SSYLEGEAA[αMeK]K([PEG2′-PEG2′-γGlu-Lauroyl])FIK([PEG2′-PEG2′-γGlu-Lauroyl])FVVEGG-NH2 [SEQ ID NO: 442] |
| 19.7 | 19.7 | H[Aib]EGS[αMeF]TSDK([PEG2′-PEG2′-γGlu-Lauroyl])SSYLEGK([PEG2′-PEG2′-γGlu-Lauroyl])AA[αMeK]EFIK([PEG2′-PEG2′-γGlu-Lauroyl])FVVEGG-NH2 [SEQ ID NO: 440] |
| 19.5 | 19.5 | H[Aib]EGS[αMeF]TSDK([PEG2′-PEG2′-γGlu-Lauroyl])SSYLEK([PEG2′-PEG2′-γGlu-Lauroyl])EAA[αMeK]EFIK([PEG2′-PEG2′-γGlu-Lauroyl])FVVEGG-NH2 [SEQ ID NO: 439] |

Molecular target: glucagon receptor (GCGR), primary cAMP assay cell line (human, UniProt P47871 26-477)
Sequence (P47871 26-477): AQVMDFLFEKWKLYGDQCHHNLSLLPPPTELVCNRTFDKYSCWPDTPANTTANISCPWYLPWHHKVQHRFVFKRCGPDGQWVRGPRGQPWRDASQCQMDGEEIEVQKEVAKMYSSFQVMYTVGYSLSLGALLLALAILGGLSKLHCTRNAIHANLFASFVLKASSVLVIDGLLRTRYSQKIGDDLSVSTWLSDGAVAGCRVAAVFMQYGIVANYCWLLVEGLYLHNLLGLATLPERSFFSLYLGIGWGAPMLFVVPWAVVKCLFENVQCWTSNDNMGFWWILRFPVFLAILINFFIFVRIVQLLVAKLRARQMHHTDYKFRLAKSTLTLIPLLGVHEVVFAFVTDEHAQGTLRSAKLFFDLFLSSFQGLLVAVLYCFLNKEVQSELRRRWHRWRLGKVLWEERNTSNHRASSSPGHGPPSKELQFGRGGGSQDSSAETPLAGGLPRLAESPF
Assay: cell-based or functional assay

| cAMP Primary assay EC50, n1 [nM] | cAMP Primary assay EC50, n2 [nM] | Binder |
| --- | --- | --- |
| 19.4 | 19.4 | H[Aib]EGS[αMeF]TSDVSK([PEG2′-PEG2′-γGlu-Lauroyl])YLEK([PEG2′-PEG2′-γGlu-Lauroyl])EAA[αMeK]EFIK([PEG2′-PEG2′-γGlu-Lauroyl])FVVEGG-NH2 [SEQ ID NO: 443] |
| 19.5 | 19.5 | H[Aib]EGS[αMeF]TSDK([PEG2′-PEG2′-γGlu-Lauroyl])SSYLEGEK([PEG2′-PEG2′-γGlu-Lauroyl])A[αMeK]EFIK([PEG2′-PEG2′-γGlu-Lauroyl])FVVEGG-NH2 [SEQ ID NO: 441] |
| 19.7 | 19.7 | H[Aib]EGS[αMeF]TSDK([PEG2′-PEG2′-γGlu-Lauroyl])SSYLEGEAA[αMeK]K([PEG2′-PEG2′-γGlu-Lauroyl])FIK([PEG2′-PEG2′-γGlu-Lauroyl])FVVEGG-NH2 [SEQ ID NO: 442] |
| 19.7 | 19.7 | H[Aib]EGS[αMeF]TSDK([PEG2′-PEG2′-γGlu-Lauroyl])SSYLEGK([PEG2′-PEG2′-γGlu-Lauroyl])AA[αMeK]EFIK([PEG2′-PEG2′-γGlu-Lauroyl])FVVEGG-NH2 [SEQ ID NO: 440] |
| 19.5 | 19.5 | H[Aib]EGS[αMeF]TSDK([PEG2′-PEG2′-γGlu-Lauroyl])SSYLEK([PEG2′-PEG2′-γGlu-Lauroyl])EAA[αMeK]EFIK([PEG2′-PEG2′-γGlu-Lauroyl])FVVEGG-NH2 [SEQ ID NO: 439] |

Molecular target: GLP-1 receptor (human, UniProt P43220 24-463)
Assay: cell-based or functional assay

| Primary assay EC50 (cAMP), Mean pM GLP-1R [pM] | Primary assay EC50 (cAMP), n1 [nM] | Primary assay EC50 (cAMP), n2 [nM] | Binder |
| --- | --- | --- | --- |
| 16 | 0.022 | 0.0096 | B1 |
| 10100 | 11 | 9.4 | B2 |
| 2440 | 3.1 | 1.8 | B3 |
| 119000 | 120 | 120 | B4 |

Molecular target: T2, glucose-dependent insulinotropic …
Assay: cell-based or functional assay

| Primary assay EC50 (cAMP), n1 [nM] | Primary assay EC50 (cAMP), n2 [nM] | Binder |
| --- | --- | --- |
| 0.69 | 0.63 | B1 |
| 100 | 100 | B2 |
| 15 | 19 | B3 |
| 0.16 | 0.079 | B4 |

Molecular target: glucagon receptor (human, UniProt P47871 26-477)
Sequence (P47871 26-477): as above
Assay: cell-based or functional assay

| Primary assay EC50 (cAMP), n1 [nM] | Primary assay EC50 (cAMP), n2 [nM] | Binder |
| --- | --- | --- |
| 7.6 | 4.1 | B1 |
| 100 | 100 | B2 |
| 3 | 1.1 | B3 |
| 120 | 120 | B4 |
